According to patent US20230303698A1 (published 2023):
Read-outs that look alike come from different tables or passages of the source.

What was measured:
Experiment in all cases: FACS
human PD-L1 = human PD-L1 (human, UniProt Q9NZQ7 19-290)
human 4-1BB [1] = target: T1, human 4-1BB (human, UniProt Q07011 24-255)
human 4-1BB [2] = target: T1, human 4-1BB; remark: listed apart in the source

Sequence of human PD-L1 (Q9NZQ7 19-290): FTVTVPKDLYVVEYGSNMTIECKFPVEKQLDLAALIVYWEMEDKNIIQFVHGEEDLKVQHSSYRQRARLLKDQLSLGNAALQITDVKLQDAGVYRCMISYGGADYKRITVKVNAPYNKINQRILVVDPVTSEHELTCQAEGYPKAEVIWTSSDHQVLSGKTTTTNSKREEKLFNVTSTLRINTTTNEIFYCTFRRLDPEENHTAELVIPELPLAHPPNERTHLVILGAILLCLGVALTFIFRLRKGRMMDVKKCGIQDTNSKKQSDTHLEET

Row | EC50 (human PD-L1) | EC50 (human 4-1BB [1]) | EC50 (human 4-1BB [2]) | Binder
1 | 1.29 nM | 3.15 nM |  | PR003551 (bispecific antibody) light: DIQMTQSPSTLSASVGDRVTVTCRASQSIYIWLAWYQQKPGKAPNLLIYKASSLETGVPSRFSGSGSGTEFTLTISSLQPDDFATYYCQQYYGSSRTFGQGTKVEIKRTVAAPSVFIFPPSDEQLKSGTASVVCLLNNFYPREAKVQWKVDNALQSGNSQESVTEQDSKDSTYSLSSTLTLSKADYEKHKVYACEVTHQGLSSPVTKSFNRGEC heavy: EVQLVESGGGLVQPGGSLRLSCAASGFTFSSYWMSWVRQAPGKGLEWVANIKQEGSEKYYVDSVKGRFTISRDNAKNSLYLQMNSLRAEDTAVYYCARDRAVAGAFDIWGQGTMVTVSSASTKGPSVFPLAPSSKSTSGGTAALGCLVKDYFPEPVTVSWNSGALTSGVHTFPAVLQSSGLYSLSSVVTVPSSSLGTQTYICNVNHKPSNTKVDKKVEPKSCDKTHTCPPCPAPEAAGGPSVFLFPPKPKDTLMISRTPEVTCVVVDVSHEDPEVKFNWYVDGVEVHNAKTKPREEQYNSTYRVVSVLTVLHQDWLNGKEYKCKVSNKALGAPIEKTISKAKGQPREPQVYTLPPSREEMTKNQVSLTCLVKGFYPSDIAVEWESNGQPENNYKTTPPVLDSDGSFFLYSKLTVDKSRWQQGNVFSCSVMHEALHNHYTQKSLSLSPGEPKSSDKTHTPPPPPRTEVQLLESGGGLVQPGGSLRLSCAASGFIFSNFAMTWVRQPPEKGLKWVSSINGSGFNTYYTDSVKGRFTISRDNSRNTLYLQMNRLTAEDTAVYFCAKEGSSETDDHYYNVDVWGQGTTVTVSS
2 | 2.26 nM |  |  | PR007163 (bispecific antibody) light: DIQMTQSPSTLSASVGDRVTVTCRASQSIYIWLAWYQQKPGKAPNLLIYKASSLETGVPSRFSGSGSGTEFTLTISSLQPDDFATYYCQQYYGSSRTFGQGTKVEIKRTVAAPSVFIFPPSDEQLKSGTASVVCLLNNFYPREAKVQWKVDNALQSGNSQESVTEQDSKDSTYSLSSTLTLSKADYEKHKVYACEVTHQGLSSPVTKSFNRGEC heavy: not shown
3 | 1.11 nM |  |  | PR003550 (bispecific antibody) light: DIQMTQSPSTLSASVGDRVTVTCRASQSIYIWLAWYQQKPGKAPNLLIYKASSLETGVPSRFSGSGSGTEFTLTISSLQPDDFATYYCQQYYGSSRTFGQGTKVEIKRTVAAPSVFIFPPSDEQLKSGTASVVCLLNNFYPREAKVQWKVDNALQSGNSQESVTEQDSKDSTYSLSSTLTLSKADYEKHKVYACEVTHQGLSSPVTKSFNRGEC heavy: EVQLVESGGGLVQPGGSLRLSCAASGFTFSSYWMSWVRQAPGKGLEWVANIKQEGSEKYYVDSVKGRFTISRDNAKNSLYLQMNSLRAEDTAVYYCARDRAVAGAFDIWGQGTMVTVSSASTKGPSVFPLAPSSKSTSGGTAALGCLVKDYFPEPVTVSWNSGALTSGVHTFPAVLQSSGLYSLSSVVTVPSSSLGTQTYICNVNHKPSNTKVDKKVEPKSCDKTHTCPPCPAPEAAGGPSVFLFPPKPKDTLMISRTPEVTCVVVDVSHEDPEVKFNWYVDGVEVHNAKTKPREEQYNSTYRVVSVLTVLHQDWLNGKEYKCKVSNKALGAPIEKTISKAKGQPREPQVYTLPPSREEMTKNQVSLTCLVKGFYPSDIAVEWESNGQPENNYKTTPPVLDSDGSFFLYSKLTVDKSRWQQGNVFSCSVMHEALHNHYTQKSLSLSPGEPKSSDKTHTPPPPPRTEVQLVESGGGVVQPGGSLRLSCAASGFTFSNYAMTWVRQAPEKGLEWVSSISGSGVSTYYADSVKGRFTISRDNSKNTLYLQMTRLTAEDTAVYFCAKEGSSETDDHYYNVDVWGQGTTVTVSS
4 |  |  | 1.65 nM | PR003563 (bispecific antibody) light: not shown heavy: EVQLLESGGGLVQPGGSLRLSCAASGFTFSSFVMSWVRQAPGKGLEWVSTISGSGRSTYYADSVKGRFTISRDNSKNTLHLQMNSLRAEDTAVYYCAKDAAAAGTKFDYWGQGTLVTVSSASTKGPSVFPLAPSSKSTSGGTAALGCLVKDYFPEPVTVSWNSGALTSGVHTFPAVLQSSGLYSLSSVVTVPSSSLGTQTYICNVNHKPSNTKVDKKVEPKSCDKTHTCPPCPAPEAAGGPSVFLFPPKPKDTLMISRTPEVTCVVVDVSHEDPEVKFNWYVDGVEVHNAKTKPREEQYNSTYRVVSVLTVLHQDWLNGKEYKCKVSNKALGAPIEKTISKAKGQPREPQVYTLPPSREEMTKNQVSLTCLVKGFYPSDIAVEWESNGQPENNYKTTPPVLDSDGSFFLYSKLTVDKSRWQQGNVFSCSVMHEALHNHYTQKSLSLSPGEPKSSDKTHTPPPPPRTEVQLVESGGGVVQPGGSLRLSCAASGFTFSNYAMTWVRQAPEKGLEWVSSISGSGVSTYYADSVKGRFTISRDNSKNTLYLQMTRLTAEDTAVYFCAKEGSSETDDHYYNVDVWGQGTTVTVSS
5 | 1.93 nM |  |  | PR007164 (bispecific antibody) chain 1: EVQLVESGGGLVQPGGSLRLSCAASGFTFSSYWMSWVRQAPGKGLEWVANIKQEGSEKYYVDSVKGRFTISRDNAKNSLYLQMNSLRAEDTAVYYCARDRAVAGAFDIWGQGTMVTVSSASTKGPSVFPLAPSSKSTSGGTAALGCLVKDYFPEPVTVSWNSGALTSGVHTFPAVLQSSGLYSLSSVVTVPSSSLGTQTYICNVNHKPSNTKVDKKVEPKSC chain 2: not shown
6 | 0.963 nM |  |  | PR004270 (bispecific antibody) chain 1: EVQLVESGGGLVQPGGSLRLSCAASGFTFSSYWMSWVRQAPGKGLEWVANIKQEGSEKYYVDSVKGRFTISRDNAKNSLYLQMNSLRAEDTAVYYCARDRAVAGAFDIWGQGTMVTVSSASTKGPSVFPLAPSSKSTSGGTAALGCLVKDYFPEPVTVSWNSGALTSGVHTFPAVLQSSGLYSLSSVVTVPSSSLGTQTYICNVNHKPSNTKVDKKVEPKSC chain 2: not shown
7 |  |  | 2.78 nM | PR003564 (bispecific antibody) light: not shown heavy: EVQLLESGGGLVQPGGSLRLSCAASGFTFSSFVMSWVRQAPGKGLEWVSTISGSGRSTYYADSVKGRFTISRDNSKNTLHLQMNSLRAEDTAVYYCAKDAAAAGTKFDYWGQGTLVTVSSASTKGPSVFPLAPSSKSTSGGTAALGCLVKDYFPEPVTVSWNSGALTSGVHTFPAVLQSSGLYSLSSVVTVPSSSLGTQTYICNVNHKPSNTKVDKKVEPKSCDKTHTCPPCPAPEAAGGPSVFLFPPKPKDTLMISRTPEVTCVVVDVSHEDPEVKFNWYVDGVEVHNAKTKPREEQYNSTYRVVSVLTVLHQDWLNGKEYKCKVSNKALGAPIEKTISKAKGQPREPQVYTLPPSREEMTKNQVSLTCLVKGFYPSDIAVEWESNGQPENNYKTTPPVLDSDGSFFLYSKLTVDKSRWQQGNVFSCSVMHEALHNHYTQKSLSLSPGEPKSSDKTHTPPPPPRTEVQLLESGGGLVQPGGSLRLSCAASGFIFSNFAMTWVRQPPEKGLKWVSSINGSGFNTYYTDSVKGRFTISRDNSRNTLYLQMNRLTAEDTAVYFCAKEGSSETDDHYYNVDVWGQGTTVTVSS
8 |  |  | 1.87 nM | PR003562 (bispecific antibody) light: not shown heavy: EVQLLESGGGLVQPGGSLRLSCAASGFTFSSFVMSWVRQAPGKGLEWVSTISGSGRSTYYADSVKGRFTISRDNSKNTLHLQMNSLRAEDTAVYYCAKDAAAAGTKFDYWGQGTLVTVSSASTKGPSVFPLAPSSKSTSGGTAALGCLVKDYFPEPVTVSWNSGALTSGVHTFPAVLQSSGLYSLSSVVTVPSSSLGTQTYICNVNHKPSNTKVDKKVEPKSCDKTHTCPPCPAPEAAGGPSVFLFPPKPKDTLMISRTPEVTCVVVDVSHEDPEVKFNWYVDGVEVHNAKTKPREEQYNSTYRVVSVLTVLHQDWLNGKEYKCKVSNKALGAPIEKTISKAKGQPREPQVYTLPPSREEMTKNQVSLTCLVKGFYPSDIAVEWESNGQPENNYKTTPPVLDSDGSFFLYSKLTVDKSRWQQGNVFSCSVMHEALHNHYTQKSLSLSPGEPKSSDKTHTPPPPPRTEVQLLESGGGLVQLGGSLRLSCAASGFTFSRYAMTWVRQAPEKGLEWVSSISGSGDDTYYGDSVKGRFTISRDNSQNTVYLQMNSLRAEDTAVYFCAKEKAGTTGDYYYNVDVWGQGTTVTVSS
